This passage reports normalised SPOT signal, Boehringer light units (BLU); mean over the file's lines of this peptide results from PMC314469, “Protein Interaction Networks by Proteome Peptide Scanning” (PLoS Biology, 2004).

What all share (experiment): SPOT array
Assay [1] deals with T1, Boi1 SH3 (BOI1_YEAST), P38041.
T1 chain: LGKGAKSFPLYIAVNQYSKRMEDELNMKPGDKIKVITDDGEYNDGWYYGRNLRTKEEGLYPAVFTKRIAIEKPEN

Assay [2] has as its target T2, Boi2 SH3 (BOI2_YEAST), P39969.
T2 chain: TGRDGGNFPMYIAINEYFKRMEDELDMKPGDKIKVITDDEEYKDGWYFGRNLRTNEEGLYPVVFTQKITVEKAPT

For assay [3], the target named is T3, Myo5 SH3 (MYO5_YEAST), Q04439.
T3 chain: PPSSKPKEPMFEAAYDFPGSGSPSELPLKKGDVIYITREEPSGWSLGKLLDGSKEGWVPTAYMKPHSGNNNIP

Assay [4] has as its target T4, Rvs167 SH3 (RV167_YEAST), P39743.
T4 chain: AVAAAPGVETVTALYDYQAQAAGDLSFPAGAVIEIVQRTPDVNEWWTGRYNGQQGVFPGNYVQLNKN

Assay [5] addresses Sho1 SH3 (SHO1_YEAST), P40073.
The target of assay [6] is T5, Yfr024 SH3 (LSB3_YEAST), P43603.
T5 chain: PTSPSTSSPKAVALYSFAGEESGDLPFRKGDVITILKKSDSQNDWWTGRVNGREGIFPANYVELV

Assay [7] deals with T6, Yhr016c SH3 (YSC84_YEAST), P32793.
T6 chain: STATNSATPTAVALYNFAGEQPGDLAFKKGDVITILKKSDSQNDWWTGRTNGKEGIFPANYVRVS

Sho1 SH3 (SHO1_YEAST), P40073, sequence (P40073 295-366): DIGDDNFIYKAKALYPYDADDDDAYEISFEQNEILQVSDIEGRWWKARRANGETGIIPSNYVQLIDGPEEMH

B1: YDR335W 779-792 (peptide)
chain: LWRPRIVPILPYIT
Take B1: the normalised SPOT signal, Boehringer light units (BLU); mean over the file's lines of this peptide was found to be 8230 in assay [1]; 1870 in assay [2]; 1050 in assay [3]; 627 in assay [4]; 112 in assay [5]; 1540 in assay [6]. The normalised SPOT signal, Boehringer light units (BLU); mean over the file's lines of this peptide in assay [7] was 331.

B2: YKL214C 53-66 (peptide)
chain: LYREREEPPLPKRI
As to B2, the normalised SPOT signal, Boehringer light units (BLU); mean over the file's lines of this peptide in assay [1] was found to be 5980; in assay [2], 18.3; in assay [3], 112; in assay [4] it was 2730; in assay [5] it was 189; in assay [6], 11800. For the same molecule, the normalised SPOT signal, Boehringer light units (BLU); mean over the file's lines of this peptide in assay [7] came to 16200.

B3: YBL076C 285-298 (peptide)
chain: LVGLKYEPLFPYFA
With B3, the normalised SPOT signal, Boehringer light units (BLU); mean over the file's lines of this peptide worked out at 50.5 in assay [1]; 108 in assay [2]; 125 in assay [3]; 35.1 in assay [4]; 76.6 in assay [5]; 26.7 in assay [6]. This molecule displayed a normalised SPOT signal, Boehringer light units (BLU); mean over the file's lines of this peptide in assay [7] of 25.3.

B4: YDR017C 929-942 (peptide)
chain: MDKFRIPPKSPNIE
With B4, the normalised SPOT signal, Boehringer light units (BLU); mean over the file's lines of this peptide in assay [1] came out at 3140; in assay [2] it was 74.3; in assay [3], 222; in assay [4], 196; in assay [5], 34.3; in assay [6], 2100. The molecule also came in with a normalised SPOT signal, Boehringer light units (BLU); mean over the file's lines of this peptide in assay [7] of 473.

B5: YAL054C 43-56 (peptide)
chain: LTSVKIVPQRPISD
B5: the normalised SPOT signal, Boehringer light units (BLU); mean over the file's lines of this peptide in assay [1] stood at 100; in assay [2] it was 54.6; in assay [3] it was 89; in assay [4], 244; in assay [5], 15.3; in assay [6], 1530. The molecule further had a normalised SPOT signal, Boehringer light units (BLU); mean over the file's lines of this peptide in assay [7] of 34.4.

B6: YGL065C 457-470 (peptide)
chain: MAFIKILPNNPWPF
Consider B6, for which the normalised SPOT signal, Boehringer light units (BLU); mean over the file's lines of this peptide was 44.1 in assay [1]; 0 in assay [2]; 59.9 in assay [3]; 46.5 in assay [4]; 166 in assay [5]; 75.2 in assay [6]. The same molecule displayed a normalised SPOT signal, Boehringer light units (BLU); mean over the file's lines of this peptide in assay [7] of 4.3.

B7: YPL111W 171-184 (peptide)
chain: MGLNKDVPHSPESL
With B7, the normalised SPOT signal, Boehringer light units (BLU); mean over the file's lines of this peptide in assay [1] turned out to be 146; in assay [2] it was 50.6; in assay [3], 99.4; in assay [4], 251; in assay [5], 19.1; in assay [6] it was 733. For the same molecule, the normalised SPOT signal, Boehringer light units (BLU); mean over the file's lines of this peptide in assay [7] worked out at 242.

B8: YGR221C 455-468 (peptide)
chain: LTSFKGRPKPPKTL
Consider B8, for which the normalised SPOT signal, Boehringer light units (BLU); mean over the file's lines of this peptide in assay [1] turned out to be 710; in assay [2], 12.9; in assay [3] it was 328; in assay [4], 50.5; in assay [5], 189; in assay [6], 216. The normalised SPOT signal, Boehringer light units (BLU); mean over the file's lines of this peptide in assay [7] was 23.2.

B9: YJL066C 98-111 (peptide)
chain: LVPSKAIPPLPQLD
Consider B9, for which the normalised SPOT signal, Boehringer light units (BLU); mean over the file's lines of this peptide in assay [1] came to 61.8; in assay [2], 51.2; in assay [3], 558; in assay [4], 28.6; in assay [5], 102; in assay [6], 226. In assay [7], this molecule gave a normalised SPOT signal, Boehringer light units (BLU); mean over the file's lines of this peptide of 26.

B10: YML058W 28-41 (peptide)
chain: MAEFRRVPLPPMAE
As for B10, the normalised SPOT signal, Boehringer light units (BLU); mean over the file's lines of this peptide is 59.6 in assay [1]; 64.1 in assay [2]; 443 in assay [3]; 30400 in assay [4]; 57.5 in assay [5]; 30500 in assay [6]. This molecule also yielded a normalised SPOT signal, Boehringer light units (BLU); mean over the file's lines of this peptide in assay [7] of 7260.

B11: YDR104C 798-811 (peptide)
chain: MKAYRANPPLPIDS
On to B11, for which the normalised SPOT signal, Boehringer light units (BLU); mean over the file's lines of this peptide in assay [1] worked out at 132; in assay [2] it was 133; in assay [3] it was 123; in assay [4], 145; in assay [5], 231; in assay [6], 938. The normalised SPOT signal, Boehringer light units (BLU); mean over the file's lines of this peptide in assay [7] was found to be 615.

B12: YMR266W 737-750 (peptide)
chain: MDGIKELPEFPIKK
Consider B12, for which the normalised SPOT signal, Boehringer light units (BLU); mean over the file's lines of this peptide in assay [1] is 25.9; in assay [2] it was 0.9; in assay [3] it was 138; in assay [4], 32.2; in assay [5], 3820; in assay [6], 402. The normalised SPOT signal, Boehringer light units (BLU); mean over the file's lines of this peptide in assay [7] was determined as 40.3.

B13: YJR066W 21-34 (peptide)
chain: MDMDRNVPLAPNLN
As for B13, the normalised SPOT signal, Boehringer light units (BLU); mean over the file's lines of this peptide in assay [1] was 41.3; in assay [2] it was 31.4; in assay [3], 91.4; in assay [4], 30.8; in assay [5], 30.7; in assay [6], 475. In assay [7], this molecule showed a normalised SPOT signal, Boehringer light units (BLU); mean over the file's lines of this peptide of 77.5.

B14: YKL027W 383-396 (peptide)
chain: LTLTKWDPSKPISL
For B14, the normalised SPOT signal, Boehringer light units (BLU); mean over the file's lines of this peptide was 190 in assay [1]; 104 in assay [2]; 231 in assay [3]; 12.4 in assay [4]; 27 in assay [5]; 65.5 in assay [6]. Also, the normalised SPOT signal, Boehringer light units (BLU); mean over the file's lines of this peptide in assay [7] stood at 21.1.
